Source: article PMC8049080

Experiments:
[1] = biological target: dopamine D2 receptor, long isoform, p.Ile212Phe variant (UniProt P14416); assay: FRET or BRET; HEK293 cells 48 hours after transfection, in phosphate-buffered saline with 0.1 mM CaCl2 and 0.5 mM MgCl2, ~100,000 cells/well; quinpirole (20-minute stimulation) followed by coelenterazine h at room temperature; agonist-induced recruitment, expressed as percentage of maximum recruitment by D2-WT
[2] = biological target: dopamine D2 receptor, short isoform, p.Ile212Phe variant (UniProt P14416); assay: as above

maximal recruitment, percent of that by D2L-WT [1]: 48% | maximal recruitment, percent of that by D2S-WT [2]: 68%
Substance: arrestin3 (from UniProt P32121 1-409) (natural protein)
